This note sets out measurements from patent US20230256092A1 (SHIONOGI, published 2023).

The target of test [1] is T1, loop1 hCCR4-hCCR8 (human, UniProt P51685 1-355).
T1 construct: chimera on Expi293 cells; hCCR8 94-107 replaced; also called loop1-human CCR4-substituted human CCR8
Kind of test: FCM, Expi293 transfectants; Δ = significantly reduced binding activity vs wild-type hCCR8.

The next test concerns the target T2, loop2 hCCR4-hCCR8 (human, UniProt P51685 1-355).
T2 construct: chimera on Expi293 cells; hCCR8 172-202 replaced; also called loop2-human CCR4-substituted human CCR8
The description is as above.

For another test, the target named is T3, loop3 hCCR4-hCCR8 (human, UniProt P51685 1-355).
T3 construct: chimera on Expi293 cells; hCCR8 264-280 replaced
Kind of test: FCM, Expi293 transfectants; blank cell = same binding activity as wild-type hCCR8.

The target in test [2] is T4, human CCR8 (human, UniProt P51685 1-355). Kind of test: cell-based or functional assay.
Test [3] addresses T4, human CCR8. Kind of test: cell-based or functional assay. The source holds these as a separate data set.
The target in the next test is T5, hCCR8 (Y17A) (human, UniProt P51685 1-355).
T5 construct: also called mutant in which Y at position 17 of human CCR8 is substituted for A
Kind of test: flow cytometry on Expi293 transfectants. (A flow cytometer gives signals particle by particle.)

A further test deals with T6, mouse CCR8 (mouse, UniProt P56484 1-353).
T6 construct: full length, on Expi293 cells; also called mCCR8
T6 sequence: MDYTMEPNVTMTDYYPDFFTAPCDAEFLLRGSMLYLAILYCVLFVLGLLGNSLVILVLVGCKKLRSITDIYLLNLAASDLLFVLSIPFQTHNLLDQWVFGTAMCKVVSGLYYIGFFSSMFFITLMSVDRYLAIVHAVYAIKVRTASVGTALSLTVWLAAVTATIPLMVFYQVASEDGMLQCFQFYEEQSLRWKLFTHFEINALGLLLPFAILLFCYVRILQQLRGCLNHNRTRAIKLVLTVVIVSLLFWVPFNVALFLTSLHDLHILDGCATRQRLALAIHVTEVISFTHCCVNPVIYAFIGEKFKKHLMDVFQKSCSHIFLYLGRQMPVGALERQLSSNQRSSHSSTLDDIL
Kind of test: flow cytometry on Expi293 transfectants.

The next test concerns the target T7, human CCR4 (human, UniProt P51679 1-360).
T7 construct: full length, on Expi293 cells; also called hCCR4
T7 sequence: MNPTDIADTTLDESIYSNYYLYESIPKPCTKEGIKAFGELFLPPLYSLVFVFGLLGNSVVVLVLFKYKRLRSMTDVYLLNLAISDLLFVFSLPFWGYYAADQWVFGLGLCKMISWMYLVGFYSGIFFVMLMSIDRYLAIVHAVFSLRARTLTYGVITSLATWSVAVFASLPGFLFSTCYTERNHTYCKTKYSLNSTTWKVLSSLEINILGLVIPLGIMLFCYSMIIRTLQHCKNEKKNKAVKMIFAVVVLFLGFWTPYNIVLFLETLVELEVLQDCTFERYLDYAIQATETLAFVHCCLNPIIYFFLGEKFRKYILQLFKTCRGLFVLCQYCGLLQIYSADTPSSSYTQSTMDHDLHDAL
Kind of test: flow cytometry on Expi293 transfectants.

The next test deals with T8, N-ter hCCR4-hCCR8 (human).
T8 construct: chimera on Expi293 cells; also called human CCR8 with the N-terminal region substituted with that of human CCR4
T8 chain: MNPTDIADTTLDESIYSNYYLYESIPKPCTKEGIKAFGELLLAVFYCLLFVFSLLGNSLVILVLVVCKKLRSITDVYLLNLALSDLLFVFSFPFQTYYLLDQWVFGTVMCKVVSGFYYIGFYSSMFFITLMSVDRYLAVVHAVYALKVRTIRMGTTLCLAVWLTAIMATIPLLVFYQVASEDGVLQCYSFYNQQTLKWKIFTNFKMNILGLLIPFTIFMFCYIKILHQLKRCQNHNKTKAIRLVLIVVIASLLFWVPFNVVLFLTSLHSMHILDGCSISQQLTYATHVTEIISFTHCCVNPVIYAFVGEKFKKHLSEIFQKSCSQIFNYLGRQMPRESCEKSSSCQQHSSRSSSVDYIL
Kind of test: flow cytometry on Expi293 transfectants.

The target of a further test is hCCR8 (K35A) (human, UniProt P51685 1-355). Kind of test: flow cytometry on Expi293 transfectants.
Test [4] deals with T4, human CCR8. Kind of test: cell-based or functional assay. This is another data set of the same source.
The target of test [5] is T4, human CCR8. Kind of test: cell-based or functional assay. This is another data set of the same source.
The target of test [6] is T4, human CCR8. Kind of test: cell-based or functional assay. The source holds these as a separate data set.
In test [7] the target is T1, loop1 hCCR4-hCCR8. Kind of test: flow cytometry on Expi293 transfectants.
Test [8] addresses T4, human CCR8. Kind of test: cell-based or functional assay. This is another data set of the same source.

Where two headings read alike, the source gives them in different places.

B1: 1H4 (antibody, V domains shown)
VH: EVQLVESGGRLVQPKGSLKLSCAASGFTFNTYAMYWIRQAPGKGLEWVARIRSKSNNYATYYADSVKDRFTISRDDSQSMLYLQMNNLKTEDTAMYYCVRARFYYSDYGYAMDYWGQGTSVTVSS
VL: DIVMTQAAPSVPVTPGESVSISCRSSKSLLHSNGNTYLYWFLQRPGQSPQLLIYRMSNLASGVPDRFSASGSGTAFTLRISRVEAEDVGVYYCMQHLEYPLTFGAGTKLELKR
notes: mouse hybridoma antibody, purified
In the case of B1, the binding result with loop1 hCCR4-hCCR8 [1] is reported as “binds”; in the test with loop2 hCCR4-hCCR8, “binds”; with loop3 hCCR4-hCCR8, “binds”; with hCCR8 (Y17A), “no binding”; with mouse CCR8, “no binding”; with human CCR4, “no binding”. The binding result in the test with N-ter hCCR4-hCCR8 and in the test with hCCR8 (K35A) was “no binding” throughout. The “Neutralizing activity IC50 (nM), Ca2+ influx by 100 nM hCCL1” value with human CCR8 [2] was determined as 0.32 nM. Further, the “IC50 (nM), Ca2+ influx by 200 nM hCCL1” value with human CCR8 [3] was determined as 0.36 nM.

B2: h10A11 (IGKV4-1/IGHV3-15 T94R) (antibody, V domains shown)
VH: EVQLVESGGALVKPGGSLRLSCAASGFTFSTYALYWVRQAPGKGLEWVGRIRSKSNNYATYYADSVKDRFTISRDDSKNTLYLQMNSLKTEDTAVYYCTRARFYYSDYGYAMDYWGQGTLVTVSS
VL: DIVMTQSPDSLAVSLGERATINCRSSKSLLHSNGNTYLYWYQQKPGQPPKLLIYRMSNLASGVPDRFSGSGSGTDFTLTISSLQAEDVAVYYCMQHLEYPLTFGQGTKLEIKR
Consider B2, for which, in the test with human CCR8 [4], the “IC50 ratio (WT IC50/mutant IC50)” value was determined as 1 ratio. Moreover, the “IC50 (nM), Ca2+ influx by 200 nM hCCL1” value with human CCR8 [5] turned out to be 0.15 nM.

B3: h10A11 (IGKV4-1/IGHV3-73) (antibody, V domains shown)
VH: EVQLVESGGGLVQPGGSLKLSCAASGFAFNTYALYWVRQASGKGLEWVGRIRSKSNNYATYYADSVKDRFTISRDDSKNTAYLQMNSLKTEDTAVYYCTRARFYYSDYGYAMDYWGQGTLVTVSS
VL: DIVMTQSPDSLAVSLGERATINCRSSKSLLHSNGNTYLYWYQQKPGQPPKLLIYRMSNLASGVPDRFSGSGSGTDFTLTISSLQAEDVAVYYCMQHLEYPLTFGQGTKLEIKR
For B3, in the test with human CCR8 [6], the “IC50 ratio (WT IC50/mutant IC50)” value was 1 ratio. Also, the “IC50 (nM), Ca2+ influx by 200 nM hCCL1” value in the test with human CCR8 [5] turned out to be 0.17 nM.

B4: 2C7 (antibody, V domains shown)
VH: QVQLKQSGPSLVQPSQSLSITCTVSGFSLTAYGVHWIRQSPGKGQEWLGVIWRGGSTDYNAAFMSRLTITKDNSKSQVFFKMNSLQADDTAIYYCAKKGGSYAMDYWGQGTSVTVSS
VL: DVVLTQTPLSLPVSLGGQASISCRSSQSLVHSNGNTYLHWYLQKPGQSPKLLIYKVSNRFSGVPDRFSGSGSGTDFTLKISRVEAEDLGVYFCSQSTQVPLTFGAGTKLELKR
notes: as for B1
B4: the binding result with loop2 hCCR4-hCCR8 is “binds”; in the test with loop3 hCCR4-hCCR8, “binds”; with hCCR8 (Y17A), “no binding”; with mouse CCR8 it was “no binding”; in the test with human CCR4, “no binding”; with N-ter hCCR4-hCCR8 it was “no binding”. For the same molecule, the binding result with loop1 hCCR4-hCCR8 [7] was “no binding”. The “Neutralizing activity IC50 (nM), Ca2+ influx by 100 nM hCCL1” value with human CCR8 [2] was 0.4 nM. Further, in the test with human CCR8 [3], the “IC50 (nM), Ca2+ influx by 200 nM hCCL1” value was 1.19 nM.

B5: h19D7 (IGKV2-18/IGHV3-73) (antibody, V domains shown)
VH: EVQLVESGGGLVQPGGSLKLSCAASGFTFSTYAMYWVRQASGKGLEWVGRIRSKSNNYATYYADSVKDRFTISRDDSKNTAYLQMNSLKTEDTAVYYCTRGGYGNYRYAMDYWGQGTTVTVSS
VL: DIVMTQTPPSLPVNPGEPASISCRSSKSLLHSNGNTYLYWYLQKPGQSPQLLIYRVSNLASGVPDRFSGSGSGSDFTLKISWVEAEDVGVYYCMQHLEYPFTFGQGTKLEIK
With B5, in the test with human CCR8 [8], the “IC50 (nM), Ca2+ influx by 200 nM hCCL1” value turned out to be 0.46 nM.
